For one substance, stoichiometry N results are on record in paper doi:10.1101/2020.11.06.371773.

One may read the stoichiometry N as a count of units in the complex or per binding partner.

The test deals with Mayaro virus (MAYV) capsid (C) protein, strain IQT4235 (Mayaro virus, strain IQT4235). The experiment in a line: cryo-EM structure.

Several values for one entry are separate records, joined by “and”; a condition that tells them apart may be missing. Equal values may be shown once.

For the substance “Mayaro virus (MAYV) capsid (C) protein, strain IQT4235 (natural protein)”, the stoichiometry N is 6 and 5.
